# Reference: patent US20250152705A1, “COMBINATION THERAPY COMPRISING AN ANTI-IL-23 ANTIBODY AND A CORTICOSTEROID FOR TREATING PSORIASIS” (priority 2022, published 2025)
# B1: tildrakizumab (antibody, chains of the INN, looked up, V domains shown)
# VH: QVQLVQSGAEVKKPGASVKVSCKASGYIFITYWMTWVRQAPGQGLEWMGQIFPASGSADYNEKFEGRVTMTTDTSTSTAYMELRSLRSDDTAVYYCARGGGGFAYWGQGTLVTVSS
# VL: DIQMTQSPSSLSASVGDRVTITCRTSENIYSYLAWYQQKPGKAPKLLIYNAKTLAEGVPSRFSGSGSGTDFTLTISSLQPEDFATYYCQHHYGIPFTFGQGTKVEIK
# How the values were obtained:
# [1] = tested on: moderate to severe plaque psoriasis; assay: Prospective, open-label study of effectiveness of tildrakizumab plus topical halcinonide ointment; format: in vivo, human; settings: for improvement of mean DLQI from baseline: patients with BSA≤3% at week 16, no halcinonide ointment
# [2] = tested on: patients with moderate to severe plaque psoriasis; assay: Safety outcomes (AEs, SAEs) in the open-label study; format: in vivo, human; settings: through week 24
# Protocol: This was a single center, prospective, open-label study to evaluate the effectiveness and safety of tildrakizumab (ILUMYA® [tildrakizumab-asmn] in combination with halcinonide ointment (HALOG® ointment [Halcinonide Ointment, USP, 0.1%) for treating moderate to severe plaque psoriasis. The study protocol was approved by an institutional review board and the study was conducted in accordance with ethical guidelines. Written informed consent was obtained by all patients before initiating treatment.
# All enrolled patients received tildrakizumab (100 mg) by subcutaneous injection at weeks 0, 4, and 16. Patients with BSA>3% at week 16 applied halcinonide ointment twice daily for 4 weeks and then continued without halcinonide for an additional 4 weeks of follow up. Patients with BSA≤3% at week 16 were also followed up to week 24. All patients were evaluated for safety and efficacy at weeks 4, 8, 16, 20 and 24.
# The primary endpoint of the study was the proportion of patients with BSA≤3% at week 16. […] Improvements in PGA, the composite PGA×BSA measure, and DLQI were also evaluated as secondary endpoints. […]
# A cohort of approximately 25 participants was planned for enrollment in the study. […] AEs and SAEs were summarized descriptively by frequency and severity, and their causal relationship to treatment was assessed.
# [3] = patients with BSA>3% at week 16, week 16
# [4] = patients with BSA≤3% at week 16, no halcinonide, week 16
molecule,measurement,setting,value
B1,decrease of mean DLQI from baseline,"[1]; all patients, week 16",68%
same,proportion of patients achieving PASI 75,"[1]; all patients, week 16",60.9%
same,proportion of patients achieving PASI 90,"[1]; all patients, week 16",17.4%
same,proportion of patients achieving PASI 100 (complete resolution),"[1]; all patients, week 16",4.3%
same,proportion of patients with BSA≤1%,"[1]; all patients, week 16",21.7%
same,reduction in mean BSA involvement from baseline,"[1]; all patients, week 16",74%
same,proportion of patients reporting a DLQI score of 0 or 1,"[1]; all patients, week 16 (baseline 4.0%)",39.2%
same,mean BSA involvement,"[1]; all patients, week 16 (baseline 19.1%)",5.0%
same,proportion of patients with BSA≤3%,"[1]; all patients, week 16, tildrakizumab 100 mg sc at weeks 0, 4, 16",52.2%
same,BSA≤3% response at weeks 20 and 24,[1]; most patients with BSA≤3% at week 16 (no halcinonide use) who completed the study,maintained a BSA≤3%
same,reduction from baseline in mean BSA,[1]; [3],55%
same,reduction from baseline in mean PGA,[1]; [3],29%
same,reduction from baseline in mean PGA×BSA,[1]; [3],64%
same,reduction in mean DLQI from baseline,[1]; [3],50%
same,improvement of mean DLQI from baseline,[1]; week 16,84%
same,improvement of mean DLQI from baseline,[1]; weeks 20 and 24,remained at similar levels
same,"BSA, PGA and PGA×BSA responses","[1]; patients with BSA≤3% at week 16, no halcinonide, through week 24",maintained
same,reduction of mean BSA from baseline,[1]; [4],89%
same,reduction of mean PGA from baseline,[1]; [4],60%
same,reduction of mean PGA×BSA from baseline,[1]; [4],95%
same,number of patients with BSA>3%,[1]; week 16,11 patients
same,number of patients with BSA≤3%,[1]; week 16,12 patients
same,serious adverse events (SAEs),[2],no SAEs
same,tolerability,[2],well tolerated
